Assays:
[1] = target: T1, N-terminal cleavage product of CLCA1 (NTP) (human, UniProt A8K7I4 22-694, N-glycans at Asn503 and Asn585); assay: cryo-EM structure
T1 sequence (looked up): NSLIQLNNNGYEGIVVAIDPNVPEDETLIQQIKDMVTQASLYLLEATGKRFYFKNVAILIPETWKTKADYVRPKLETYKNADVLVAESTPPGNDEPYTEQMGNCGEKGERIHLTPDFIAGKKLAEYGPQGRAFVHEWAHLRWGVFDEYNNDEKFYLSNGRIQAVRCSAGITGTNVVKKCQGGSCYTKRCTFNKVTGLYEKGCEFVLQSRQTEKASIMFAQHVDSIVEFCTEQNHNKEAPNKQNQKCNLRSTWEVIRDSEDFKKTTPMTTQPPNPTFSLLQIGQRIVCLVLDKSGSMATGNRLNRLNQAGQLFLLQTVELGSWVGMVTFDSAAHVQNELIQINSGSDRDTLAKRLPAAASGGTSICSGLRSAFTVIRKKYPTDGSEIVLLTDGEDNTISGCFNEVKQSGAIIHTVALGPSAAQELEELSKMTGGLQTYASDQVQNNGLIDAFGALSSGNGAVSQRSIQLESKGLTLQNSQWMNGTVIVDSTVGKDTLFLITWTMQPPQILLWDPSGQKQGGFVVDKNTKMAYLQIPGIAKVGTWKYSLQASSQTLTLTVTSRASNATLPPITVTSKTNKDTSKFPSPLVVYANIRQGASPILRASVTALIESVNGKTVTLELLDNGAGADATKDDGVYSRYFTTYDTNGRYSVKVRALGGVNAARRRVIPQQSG

[2] = target: the molecule itself; assay: SDS-PAGE with or without DTT and Western blot

binding result [1]: binds
B1: C-terminal cleavage product of CLCA1 (CTP) (domain or fragment, human, UniProt A8K7I4 695-914, looked up)
chain: ALYIPGWIENDEIQWNPPRPEINKDDVQHKQVCFSRTSSGGSFVASDVPNAPIPDLFPPGQITDLKAEIHGGSLINLTWTAPGDDYDHGTAHKYIIRISTSILDLRDKFNESLQVNTTALIPKEANSEEVFLFKPENITFENGTDLFIAIQAVDKVDLKSEISNIARVSLFIPPQTPPETPSPDETSAPCPNIHINSTIPGIHILKIMWKWIGELQLSIA
modifications: N-glycans at Asn770, Asn804, Asn810, Asn831 and Asn836
binding result [2]: binds

Reference: article doi:10.1101/2025.10.18.683246 (bioRxiv, 2025)
